Measurements: the RNAGym collection of RNA variant scans (doi:10.7554/elife.80360)

B1: CPEB3 Ribozyme (parent)
chain: GGGGGCCACAGCAGAAGCGUUCACGUCGCGGCCCCUGUCAGAUUCUGGUGAAUCUGCGAAUUCUGCUGU

Variants of: B1
Test: self-cleavage, relative activity (ratio to wild type); higher = more cleavage; co-transcriptional

First: GGGGGCCACAGCAGAAGCGUUCACGACGCGGCCCCUGUCAGAUUCUGGUCAAUCUGCGAAUUCUGCUGU [U26A G50C]
Second: GGGGGCCACAGCAGAAGCGUUCACGACGCGGCGCCUGUCAGAUUCUGGUGAAUCUGCGAAUUCUGCUGU [U26A C33G]
The self-cleavage of the first is higher: 0.95 for the first, 0.395 for the second.

Compared with GGGGGCCACAGCAGAAGCGUUCACGACGCGGCCCCUGGCAGAUUCUGGUGAAUCUGCGAAUUCUGCUGU [U26A U38G], GGGGGCCACAGCAGAAGCGUUCACGACGCGGCCCCUGCCAGAUUCUGGUGAAUCUGCGAAUUCUGCUGU [U26A U38C] is higher in self-cleavage: 0.244 for the first, 0.419 for the second.

Going from GGGGGCCACAGCAGAAGCGUUCACGACGCGGCCCCUGACAGAUUCUGGUGAAUCUGCGAAUUCUGCUGU [U26A U38A] to GGGGGCCACAGCAGAAGCGUUCACGCCGCGGCCCCUGUCUGAUUCUGGUGAAUCUGCGAAUUCUGCUGU [U26C A40U], the self-cleavage rises from 0.423 to 0.733.

First: GGGGGCCACAGCAGAAGCGUUCACGCCGCGGCCCCUGUCGGAUUCUGGUGAAUCUGCGAAUUCUGCUGU [U26C A40G]
Second: GGGGGCCACAGCAGAAGCGUUCACGCCGCGGCCCCUGUCCGAUUCUGGUGAAUCUGCGAAUUCUGCUGU [U26C A40C]
The self-cleavage of the first is higher: 0.949 for the first, 0.455 for the second.

Compared with GGGGGCCACAGCAGAAGCGUUCACGCCGCGGCCCCUGUCAGAUUCUGGUGAAUCUGCGAAUUCUGCUGU [U26C], GGGGGCCACAGCAGAAGCGUUCACGACGCGGCCCCUGUCAGAUUCUGGUGAAUCUGCGAAUUCUGCUAU [U26A G68A] is lower in self-cleavage: 0.993 for the first, 0.941 for the second.

Going from GGGGGCCACAGCAGAAGCGUUCACGACGCGGCCCCUGUCAGAUUCUGGUGAAUCUGCGAAUUCUGCGGU [U26A U67G] to GGGGGCCACAGCAGAAGCGUUCACGACGCGGCCCCUGUCAGAUUCUGGUGAAUCUGCGAAUUCUGCCGU [U26A U67C], the self-cleavage rises from 0.858 to 0.868.

Compared with GGGGGCCACAGCAGAAGCGUUCACGACGCGGCCCCUGUCAGAUGCUGGUGAAUCUGCGAAUUCUGCUGU [U26A U44G], GGGGGCCACAGCAGAAGCGUUCACGACGCGGCCCCUGUCAGAUACUGGUGAAUCUGCGAAUUCUGCUGU [U26A U44A] is lower in self-cleavage: 0.85 for the first, 0.843 for the second.

Compared with GGGGGCCACAGCAGAAGCGUUCACGACGCGGCCCCUGUCAGAUUCUGGUGAAUCUCCGAAUUCUGCUGU [U26A G56C], GGGGGCCACAGCAGAAGCGUUCACGACGCGGCCCCUGUCAGAUUCUGGUGAAUCUUCGAAUUCUGCUGU [U26A G56U] is higher in self-cleavage: 0.357 for the first, 0.752 for the second.

First: GGGGGCCACAGCAGAAGCGUUCACGCCGCGGCCCCUGUCAGAUUCUGGUGAAUCUGCGUAUUCUGCUGU [U26C A59U]
Second: GGGGGCCACAGCAGAAGCGUUCACGCCGCGGCCCCUGUCAGAUUCUGGUGAAUCUGCGGAUUCUGCUGU [U26C A59G]
The self-cleavage of the first is lower: 0.677 for the first, 1.05 for the second.

Compared with GGGGGCCACAGCAGAAGCGUUCACGCCGCGGCCCCUGUCAGAUUCUGGUGAAUCUGCGCAUUCUGCUGU [U26C A59C], GGGGGCCACAGCAGAAGCGUUCACGACGCGGCCCCUUUCAGAUUCUGGUGAAUCUGCGAAUUCUGCUGU [U26A G37U] is lower in self-cleavage: 0.59 for the first, 0.222 for the second.

Going from GGGGGCCACAGCAGAAGCGUUCACGACGCGGCCCCUAUCAGAUUCUGGUGAAUCUGCGAAUUCUGCUGU [U26A G37A] to GGGGGCCACAGCAGAAGCGUUCACGACGCGGCCCCUCUCAGAUUCUGGUGAAUCUGCGAAUUCUGCUGU [U26A G37C], the self-cleavage falls from 0.287 to 0.209.

First: GGGGGCCACAGCAGAAGCGUUCACGACGCGGCCCCUGUCAGAUUCUGGUGAAUCUGCGAAUUCUACUGU [U26A G65A]
Second: GGGGGCCACAGCAGAAGCGUUCACGCCGCGGCCCCUGUCAGAUUCUGGUGUAUCUGCGAAUUCUGCUGU [U26C A51U]
The self-cleavage of the first is lower: 0.736 for the first, 0.982 for the second.

Going from GGGGGCCACAGCAGAAGCGUUCACGCCGCGGCCCCUGUCAGAUUCUGGUGCAUCUGCGAAUUCUGCUGU [U26C A51C] to GGGGGCCACAGCAGAAGCGUUCACGCCGCGGCCCCUGUCAGAUUCUGGUGGAUCUGCGAAUUCUGCUGU [U26C A51G], the self-cleavage falls from 0.972 to 0.928.

Compared with GGGGGCCACAGCAGAAGCGUUCACGACGCGGCCCCUGUCAGAUUCUGGUGAAUCUGCGAAUUCAGCUGU [U26A U64A], GGGGGCCACAGCAGAAGCGUUCACGACGCGGCCCCUGUCAGAUUCUGGUGAAUCUGCGAAUUCGGCUGU [U26A U64G] is higher in self-cleavage: 0.628 for the first, 0.719 for the second.

Compared with GGGGGCCACAGCAGAAGCGUUCACGACGCGGCCCCUGUCAGAUUCUGGUGAAUUUGCGAAUUCUGCUGU [U26A C54U], GGGGGCCACAGCAGAAGCGUUCACGACGCGGCCCCUGUCACAUUCUGGUGAAUCUGCGAAUUCUGCUGU [U26A G41C] is lower in self-cleavage: 0.909 for the first, 0.54 for the second.

First: GGGGGCCACAGCAGAAGCGUUCACGACGCGGCCCCUGUCAGAUUCUGGUGAAUCUGCGAAUUCUGUUGU [U26A C66U]
Second: GGGGGCCACAGCAGAAGCGUUCACGACGCGGCCCCUGUCAGAUUCUGGUGAAUCUGCGAAUUCUGAUGU [U26A C66A]
The self-cleavage of the first is higher: 0.946 for the first, 0.637 for the second.

Compared with GGGGGCCACAGCAGAAGCGUUCACGACGCGGCCCCUGUCAGAUUCUGGUGAAUCUGCGAAUUCUGGUGU [U26A C66G], GGGGGCCACAGCAGAAGCGUUCACGACGCGGCCCCUGUCAGAUUCUGGUGAACCUGCGAAUUCUGCUGU [U26A U53C] is higher in self-cleavage: 0.635 for the first, 0.724 for the second.

Compared with GGGGGCCACAGCAGAAGCGUUCACGACGCGGCCCCUGUCAGAUUCUGGUGAAGCUGCGAAUUCUGCUGU [U26A U53G], GGGGGCCACAGCAGAAGCGUUCACGACGCGGCCCCUGUCAGAUUCUGGUGAAACUGCGAAUUCUGCUGU [U26A U53A] is higher in self-cleavage: 0.647 for the first, 0.806 for the second.

First: GGGGGCCACAGCAGAAGCGUUCACGACGCGACCCCUGUCAGAUUCUGGUGAAUCUGCGAAUUCUGCUGU [U26A G31A]
Second: GGGGGCCACAGCAGAAGCGUUCACGACGCGGCCCCUGUCAGAUUCUAGUGAAUCUGCGAAUUCUGCUGU [U26A G47A]
The self-cleavage of the first is lower: 0.511 for the first, 0.88 for the second.

With GGGGGCCACAGCAGAAGCGUUCACGACGCGGCCCCUGUCAGAUUCUUGUGAAUCUGCGAAUUCUGCUGU [U26A G47U] the self-cleavage was 0.932.
